Test results published in patent publication US20210269517A1, “METHOD OF TREATING WASTING DISORDERS” (CSL Limited, priority 2018, published 2021).

T1: VEGF-B (Mus musculus, UniProt P49766)
T1 construct: endogenous in cells; host or cells: C57BL/6 male mice (in vivo)
T1 sequence (P49766 22-207): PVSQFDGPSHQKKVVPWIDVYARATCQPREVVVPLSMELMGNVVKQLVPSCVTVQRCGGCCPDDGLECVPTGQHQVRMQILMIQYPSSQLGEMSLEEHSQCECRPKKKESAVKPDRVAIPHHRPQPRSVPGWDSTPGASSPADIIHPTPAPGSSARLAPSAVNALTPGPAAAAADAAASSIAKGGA


Tests used:
[1] = tested on: visceral epididymal adipose tissue; assay: Forskolin-stimulated lipolysis in adipose tissue explants in the presence of Atglistatin; format: cell-based, mice; details: 5 μM Atglistatin, 10 μM forskolin
Experimental: Male C57BL/6 wild-type mice and aged matched Vegfb^−/− mice (12 weeks old) were subjected to 14 hours of overnight fasting. Animals were sacrificed using carbon dioxide anaesthetics and visceral epididymal adipose tissue was surgically removed, washed in DPBS, and incubated in prewarmed (37° C.) DMEM (Dulbecco's modified Eagle's medium (DMEM, 1 g/l glucose; GIBCO, Life Technologies, Carlsbad, Calif.) until use. For measurements of forskolin-stimulated lipolysis, the adipose tissue pieces (20±5 mg) were pre-incubated in 200 μl DMEM containing 2% BSA (FA-free; Sigma-Aldrich) or 10 μM forskolin (Sigma-Aldrich) in the presence or absence of or 5 μM Atglistatin (Sigma-Aldrich) in 96-well plates at 37° C., 5% CO2, and 95% humidified atmosphere for 60 min. For measurements of basal lipolysis no pre-incubation was performed. Adipose tissue explants were transferred into 200 μl of identical fresh medium and incubated for further 60 min (=period of measurement) at 37° C., 5% CO2, and 95% humidified atmosphere. FA content was determined from the incubation media using a NEFA kit (Wako chemicals). The total amount of protein was measured by transferring the tissue explants into 1 ml extraction solution (Chloroform/methanol (2:1, v/v), 1% glacial acetic acid) and incubated for 60 min at 37° C. under vigorous shaking. […] Protein content of the adipose tissue explant lysates was determined from the lysed solution using BCA reagent kit (Pierce) and BSA as standard. The rate of lipolysis rate was calculated as the amount of NEFAs/mg protein/hrs. […]
Mice carrying the lox-containing gene construct allowing for Cre recombinase-mediated tissue specific ablation of Vegfb (Vegfb Flox+ mice) were generated by Taconic Artemis (Cologne, Germany). […] FA content was determined from the incubation media using a NEFA kit (Wako chemicals). The total amount of protein was measured by transferring the tissue explants into 1 ml extraction solution (Chloroform/methanol (2:1, v/v), 1% glacial acetic acid) and incubated for 60 min at 37° C. under vigorous shaking. […]

[2] = biological target: T1, VEGF-B; assay: Plasma NEFAs, glycerol, triglycerides and insulin in fasting-induced lipolysis; format: in vivo, C57BL/6 mice
Experimental: Male C57BL/6 mice and aged matched Vegfb^+/− and Vegfb^−/− (12 weeks old) mice were subjected to 14 hours of overnight fasting. Animals were sacrificed using carbon dioxide anaesthetics and total blood was removed by cardiac puncture. Blood was centrifuged at 14000 rpm, 4° C. for 10 minutes, serum was separated and frozen in aliquots at −80° C. Commercially available kits were used for enzymatic determination of non-esterified fatty acids (NEFAs; Wako Chemicals), glycerol (Abcam), triglycerides (TAGs; Sigma-Aldrich) and insulin (Mercodia). Statistical analyses were performed using one-way ANOVA.
(§1) C57BL/6 male mice purchased from Janvier labs and injected with 3 consecutive injections intraperitoneally (i.p.) twice weekly with 400 μg of anti-VEGF-B antibody (2H10) or an isotype matched control antibody. At the age of 12-16 weeks animals were subjected to 14 hours of overnight fasting. Body weight and blood glucose levels were determined as described above.
C57BL/6 male mice were treated with an anti-VEGF-B antibody (2H10) or an isotype matched control antibody as described above. At the age of 12-16 weeks animals were subjected to 14 hours of overnight fasting, sacrificed using carbon dioxide anaesthetics and total blood removed by cardiac puncture and processed as described above. Enzymatic determination of NEFAs (Wako Chemicals) and glycerol (Abcam), triglycerides (Sigma-Aldrich) and insulin (Mercodia) was performed as previously described.

[3] = biological target: T1, VEGF-B; assay: Body weight and blood glucose in chow-fed and overnight-fasted mice treated with anti-VEGF-B antibody; format: in vivo, C57BL/6 mice; details: fed or fasted state (14 h overnight); 400 μg i.p. twice weekly, 3 injections; vs isotype control
Experimental: Male C57BL/6 wild-type mice and aged matched (12 weeks) Vegfb^+/− and Vegfb^−/− mice were subjected to 14 hours of overnight fasting. Body weight and blood glucose levels were recorded before and after fasting. Body weight drop was calculated as a percentage of weight loss determined by recording body weight in the fasted and fed state. Glucose measurements were performed using a Bayer Contour Glucose meter on blood from the tail vein. Statistical analyses were performed using one-way ANOVA.
as §1

[4] = biological target: T1, VEGF-B; assay: Ex vivo lipolysis rate in visceral epididymal adipose tissue of antibody-treated mice; design: species or system C57BL/6 mice; details: vs control treated
Experimental: Male C57BL/6 wild-type mice and aged matched Vegfb^−/− mice (12 weeks old) were subjected to 14 hours of overnight fasting. […] FA content was determined from the incubation media using a NEFA kit (Wako chemicals). The total amount of protein was measured by transferring the tissue explants into 1 ml extraction solution (Chloroform/methanol (2:1, v/v), 1% glacial acetic acid) and incubated for 60 min at 37° C. under vigorous shaking. […] Protein content of the adipose tissue explant lysates was determined from the lysed solution using BCA reagent kit (Pierce) and BSA as standard. The rate of lipolysis rate was calculated as the amount of NEFAs/mg protein/hrs. […]
C57BL/6 male mice purchased from Janvier labs and injected with 3 consecutive injections intraperitoneally (i.p.) twice weekly with 400 μg of anti-VEGF-B antibody (2H10) or an isotype matched control antibody. […] Body weight and blood glucose levels were determined as described above.
C57BL/6 male mice were treated with an anti-VEGF-B antibody (2H10) or an isotype matched control antibody as described above. […] Basal and forskolin-stimulated lipolysis was measured as previously described above.

[5] = biological target: T1, VEGF-B; assay: Hepatic lipid droplet quantification (adipophilin) during fasting-induced lipolysis; format: in vivo, C57BL/6 mice; details: vs control treated
Experimental: Male C57BL/6 mice and aged matched (12 weeks) Vegfb^+/− and Vegfb^−/− mice were subjected to 14 hours of overnight fasting. Animals were sacrificed using carbon dioxide anaesthetics and livers and hearts were dissected. For Oil Red 0 (ORO) analysis, liver biopsies were embedded in Tissue-Tek® (Sakura) directly on the mould of the cryostat. Cryo sections (12 μm) were immersed either 5 min (liver) or 8 min (heart) in ORO working solution (2.5 g oil red 0 (Sigma-Aldrich), dissolved in 400 ml 99% isopropanol, further diluted 6:10 in H2O, filtered through a […] filter (Corning). Thereafter the sections were submerged for 3 secs in hematoxylin solution followed by short submerging in LiCO3 (for liver) and rinsed for 10 min under running tap water before they were mounted. Stained sections were examined with bright field microscopy. At least 10 frames per animal within each section were photographed with an Axio Vision microscope (Carl Zeiss) at 20× magnification. The amount of neutral lipids was quantified using Axio Vision Run wizard program for liver or heart ORO staining (pixel^2/μm^2). For measurements of lipid droplets, liver biopsies were fixed in 4% PFA for 24 hours and subsequently processed for paraffin embedding using standard procedures and 4 μm sections were prepared. Antigen retrieval was performed using Antigen retrieval solution Ph6 (Dako #S2367) and heating at 98° C. for 10 min. Sections were incubated at 4° C. overnight with guinea pig anti-adipophilin (Fitzgerald) antibody. […] The amount of lipid droplets was quantified using Axio Vision Run wizard program for hepatic adipophilin+staining (pixel^2/μm^2 or arbitrary units).
C57BL/6 male mice purchased from Janvier labs and injected with 3 consecutive injections intraperitoneally (i.p.) twice weekly with 400 μg of anti-VEGF-B antibody (2H10) or an isotype matched control antibody. […] Body weight and blood glucose levels were determined as described above. […]

[6] = chow-fed mice, vs isotype control
[7] = fasted mice, between treatment groups

Plasma insulin levels [2, 6]	Plasma levels of NEFAs [2, 6]	Plasma levels of TAGs [2, 6]	Plasma levels of glycerol [2, 6]	Plasma levels of NEFAs ([2]; fasted mice (14 h overnight))	Plasma levels of glycerol ([2]; fasted mice (14 h overnight))	Fasting plasma TAG levels [2, 7]	Fasting plasma insulin levels [2, 7]	Forskolin-stimulated lipolysis rate ([4]; 10 μM forskolin)	Basal lipolysis rate ([4]; adipose tissue of fasted mice)	Hepatic lipid accumulation ([5]; fasting conditions (fasting-induced lipolysis))	Hepatic lipid accumulation ([5]; fasting conditions (fasting-induced lipolysis), listed as anti-VEGF-B)	Hepatic lipid accumulation ([5]; fed conditions)	Molecule	Forskolin-stimulated lipolysis rate ([1]; explants of AdiCre/Vegfb Flox+, WT/WT, WT/Vegfb Flox+ and AdiCre/WT mice)	Forskolin-stimulated lipolysis ([1]; explants of anti-VEGF-B and control treated C57BL/6 mice)	Forskolin-stimulated lipolysis ([1]; explants of wild-type and Vegfb−/− mice)	Blood glucose levels [3]	Body weight [3]
–	–	–	–	–	–	–	–	–	–	–	–	–	CN(C)C(=O)Nc1cccc(-c2ccc(N(C)C)cc2)c1 [Atglistatin]	inhibited	decreased	decreased	–	–
significant increase	did not alter	did not alter	did not alter	not increased	not increased	No differences	No differences	No effect	significantly reduces	inhibited	significantly reduced	significantly reduced	2H10: anti-VEGF-B antibody comprising a VH of SEQ ID NO: 3 and a VL of SEQ ID NO: 4 (antibody, V domains shown, amino acid sequence from a VH of antibody 2H10; amino acid sequence from a VL of antibody 2H10) VH: VQLQQPGTELVKPGASVKLSCKASGYTFTGFWIHWVKQRPGQGLEWIGHINPGNGGTNYNEKFKRMATLTVDKSSSTAYMQLSSLTSEDSAVYYCARSYSNYVRAMDYWGQGTSVTVSS VL: IQMTQTTSSLSASLGDRVTISCRASQDISNFLNWYQQKPDGTVKLLIYYTSTLHSGVPSRFSGSGSGTDYSLTISNLEQEDIATYFCQQGKTLPPTFGGGTKLEIK	–	–	–	does not Influence	does not Influence
